Target: Fasciola hepatica profilin (FhProfilin), recombinant (Fasciola hepatica)
Assay: SEC; Superdex S75 16/60 in TBS (10 mM Tris-HCl, 300 mM NaCl, pH 8.0), 1 ml/min; elution volume compared with proteins of known molecular weight

- stoichiometry N: 2
Substance: Fasciola hepatica profilin (FhProfilin), recombinant (natural protein)

Source: PMC7727368
